Data as given in publication PMC9482650, “Quantitative fragmentomics allow affinity mapping of interactomes” (Nature Communications, 2022).

How the values were obtained:
Assay in all cases: holdup assay
Parameters in all cases: key: below the threshold = too weak to quantify, mostly under pKd 3.1 to 4
Settings in all cases: plain residues with an end cap or a label only (N-terminal biotin on a linker: ado-ado)
DLG1_1, Q12959 = molecular target: DLG1_1, Q12959
LIN7B, Q9HAP6 = molecular target: T1, LIN7B, Q9HAP6
T1 sequence (Q9HAP6 88-185, limits assumed, looked up): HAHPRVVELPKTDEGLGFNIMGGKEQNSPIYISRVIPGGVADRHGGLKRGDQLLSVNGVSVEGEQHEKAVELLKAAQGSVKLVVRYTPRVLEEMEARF

LNX1_3, Q8TBB1 = molecular target: LNX1_3, Q8TBB1
FRMPD3, Q5JV73 = molecular target: FRMPD3, Q5JV73
SNTA1, Q13424 = molecular target: T2, SNTA1, Q13424
T2 sequence (Q13424 82-180, limits assumed, looked up): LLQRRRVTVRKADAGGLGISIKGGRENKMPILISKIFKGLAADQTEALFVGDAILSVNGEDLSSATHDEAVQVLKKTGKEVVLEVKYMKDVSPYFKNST

DLG4_3, P78352 = molecular target: DLG4_3, P78352
FRMPD2_2, Q68DX3 = molecular target: FRMPD2_2, Q68DX3
MAGI2_3, Q86UL8 = molecular target: MAGI2_3, Q86UL8
Inadl_1, Q8NI35 = molecular target: Inadl_1, Q8NI35
NHERF3_3, Q5T2W1 = molecular target: T3, NHERF3_3, Q5T2W1
T3 sequence (Q5T2W1 238-333, limits assumed, looked up): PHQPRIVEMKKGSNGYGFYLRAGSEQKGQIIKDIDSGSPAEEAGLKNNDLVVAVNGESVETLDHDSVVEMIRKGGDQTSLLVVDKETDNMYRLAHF

LIN7C, Q9NUP9 = molecular target: T4, LIN7C, Q9NUP9
T4 sequence (Q9NUP9 88-185, limits assumed, looked up): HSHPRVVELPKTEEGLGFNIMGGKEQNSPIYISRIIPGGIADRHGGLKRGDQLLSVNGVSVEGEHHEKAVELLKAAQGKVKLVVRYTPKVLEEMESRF

HTRA3, P83110 = molecular target: T5, HTRA3, P83110
T5 sequence (P83110 354-453, limits assumed, looked up): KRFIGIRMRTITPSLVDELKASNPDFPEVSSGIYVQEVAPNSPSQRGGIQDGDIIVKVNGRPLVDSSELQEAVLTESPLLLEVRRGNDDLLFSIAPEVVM

DLG3_3, Q92796 = molecular target: T6, DLG3_3, Q92796
T6 sequence (Q92796 374-475, limits assumed, looked up): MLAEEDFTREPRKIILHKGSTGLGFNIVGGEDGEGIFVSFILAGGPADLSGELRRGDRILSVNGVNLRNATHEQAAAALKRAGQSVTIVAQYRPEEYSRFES

DLG2_2, Q15700 = molecular target: DLG2_2, Q15700
MAGI1_2, Q96QZ7 = molecular target: MAGI1_2, Q96QZ7
GRIP2_3, Q9C0E4 = molecular target: GRIP2_3, Q9C0E4
Inadl_10, Q8NI35 = molecular target: Inadl_10, Q8NI35
PARD3_3, Q8TEW0 = molecular target: PARD3_3, Q8TEW0
GORASP1, Q9BQQ3 = molecular target: GORASP1, Q9BQQ3
MAGI3_2, Q5TCQ9 = molecular target: MAGI3_2, Q5TCQ9
MAST2, Q6P0Q8 = molecular target: MAST2, Q6P0Q8
GOPC, Q9HD26 = molecular target: GOPC, Q9HD26
NHERF4_4, Q86UT5 = molecular target: NHERF4_4, Q86UT5
RHPN1, Q8TCX5 = molecular target: T7, RHPN1, Q8TCX5
T7 sequence (Q8TCX5 508-602, limits assumed, looked up): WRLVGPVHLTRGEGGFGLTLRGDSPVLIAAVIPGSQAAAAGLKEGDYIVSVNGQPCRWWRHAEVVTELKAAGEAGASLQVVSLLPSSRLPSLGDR

LNX1_2, Q8TBB1 = molecular target: LNX1_2, Q8TBB1
FRMPD2_1, Q68DX3 = molecular target: FRMPD2_1, Q68DX3
ARHGEF12, Q9NZN5-2 = molecular target: ARHGEF12, Q9NZN5-2
APBA1_2, Q02410 = molecular target: T8, APBA1_2, Q02410
T8 sequence (Q02410 742-832, limits assumed, looked up): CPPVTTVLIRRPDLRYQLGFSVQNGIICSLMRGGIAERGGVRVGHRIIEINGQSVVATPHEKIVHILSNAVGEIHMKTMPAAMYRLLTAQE

Inadl_6, Q8NI35 = molecular target: Inadl_6, Q8NI35
Inadl_4, Q8NI35 = molecular target: Inadl_4, Q8NI35
Inadl_8, Q8NI35 = molecular target: Inadl_8, Q8NI35
Chain of Inadl_8, Q8NI35 (Q8NI35 1425-1530): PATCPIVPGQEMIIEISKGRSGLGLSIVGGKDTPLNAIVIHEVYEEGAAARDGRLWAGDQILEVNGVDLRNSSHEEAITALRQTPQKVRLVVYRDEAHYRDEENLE

Chain of FRMPD2_1, Q68DX3 (Q68DX3 770-861): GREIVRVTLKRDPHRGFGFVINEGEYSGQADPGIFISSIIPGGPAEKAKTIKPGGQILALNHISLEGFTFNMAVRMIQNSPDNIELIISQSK
Chain of MAST2, Q6P0Q8 (Q6P0Q8 1099-1202): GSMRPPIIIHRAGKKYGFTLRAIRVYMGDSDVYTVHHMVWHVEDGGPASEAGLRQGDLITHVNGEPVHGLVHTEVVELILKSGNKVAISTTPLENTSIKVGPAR
Chain of FRMPD3, Q5JV73 (Q5JV73 12-100): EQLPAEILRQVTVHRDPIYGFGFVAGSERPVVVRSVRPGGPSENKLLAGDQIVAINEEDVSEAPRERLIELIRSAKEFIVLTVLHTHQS
Chain of MAGI3_2, Q5TCQ9 (Q5TCQ9 398-503): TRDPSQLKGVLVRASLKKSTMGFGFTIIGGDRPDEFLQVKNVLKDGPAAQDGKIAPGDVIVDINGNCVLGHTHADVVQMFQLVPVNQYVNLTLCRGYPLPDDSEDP
Chain of DLG4_3, P78352 (P78352 306-403): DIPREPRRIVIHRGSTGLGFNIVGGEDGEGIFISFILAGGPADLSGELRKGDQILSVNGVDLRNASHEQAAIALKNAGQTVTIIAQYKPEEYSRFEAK
Chain of GORASP1, Q9BQQ3 (Q9BQQ3 1-208): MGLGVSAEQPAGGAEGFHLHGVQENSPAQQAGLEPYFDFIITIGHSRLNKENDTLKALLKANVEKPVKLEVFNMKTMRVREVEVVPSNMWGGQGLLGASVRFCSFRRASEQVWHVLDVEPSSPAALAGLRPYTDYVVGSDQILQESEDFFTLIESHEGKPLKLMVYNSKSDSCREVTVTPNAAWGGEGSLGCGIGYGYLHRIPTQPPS
Chain of DLG2_2, Q15700 (Q15700 189-283): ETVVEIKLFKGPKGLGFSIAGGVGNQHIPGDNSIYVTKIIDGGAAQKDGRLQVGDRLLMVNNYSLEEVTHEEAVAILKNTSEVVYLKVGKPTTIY
Chain of LNX1_3, Q8TBB1 (Q8TBB1 500-596): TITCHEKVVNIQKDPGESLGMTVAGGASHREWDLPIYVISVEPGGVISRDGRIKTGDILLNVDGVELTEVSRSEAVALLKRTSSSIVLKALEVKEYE
Chain of LNX1_2, Q8TBB1 (Q8TBB1 371-470): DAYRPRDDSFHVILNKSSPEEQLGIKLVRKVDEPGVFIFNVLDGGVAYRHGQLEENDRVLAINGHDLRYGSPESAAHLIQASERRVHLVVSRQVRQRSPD
Chain of FRMPD2_2, Q68DX3 (Q68DX3 944-1038): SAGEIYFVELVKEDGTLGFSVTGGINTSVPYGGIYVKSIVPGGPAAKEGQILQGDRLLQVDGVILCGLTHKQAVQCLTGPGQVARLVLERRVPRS
Chain of MAGI2_3, Q86UL8 (Q86UL8 600-682): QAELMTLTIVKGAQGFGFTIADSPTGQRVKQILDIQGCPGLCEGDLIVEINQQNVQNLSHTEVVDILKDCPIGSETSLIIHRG
Chain of Inadl_6, Q8NI35 (Q8NI35 1058-1167): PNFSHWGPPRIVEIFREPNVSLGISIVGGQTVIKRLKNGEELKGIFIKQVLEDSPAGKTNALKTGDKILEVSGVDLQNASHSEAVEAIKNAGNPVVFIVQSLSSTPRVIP
Chain of ARHGEF12, Q9NZN5-2 (Q9NZN5 other isoform, or with tags, fused parts or gaps): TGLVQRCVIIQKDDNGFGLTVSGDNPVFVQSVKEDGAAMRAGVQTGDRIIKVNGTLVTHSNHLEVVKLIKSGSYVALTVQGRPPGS
Chain of Inadl_10, Q8NI35 (Q8NI35 1673-1763): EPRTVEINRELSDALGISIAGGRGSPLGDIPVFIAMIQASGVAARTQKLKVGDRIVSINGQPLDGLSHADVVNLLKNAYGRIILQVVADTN
Chain of Inadl_4, Q8NI35 (Q8NI35 547-651): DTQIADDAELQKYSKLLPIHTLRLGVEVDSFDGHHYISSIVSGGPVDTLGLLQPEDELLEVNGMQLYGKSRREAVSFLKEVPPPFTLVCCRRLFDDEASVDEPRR
Chain of GRIP2_3, Q9C0E4 (Q9C0E4 238-339): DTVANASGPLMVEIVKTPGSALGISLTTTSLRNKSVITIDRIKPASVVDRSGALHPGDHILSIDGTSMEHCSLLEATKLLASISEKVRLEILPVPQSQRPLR
Chain of Inadl_1, Q8NI35 (Q8NI35 113-229): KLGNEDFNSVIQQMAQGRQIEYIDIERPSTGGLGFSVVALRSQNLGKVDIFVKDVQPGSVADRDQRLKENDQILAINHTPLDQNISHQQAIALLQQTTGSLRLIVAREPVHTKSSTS
Chain of NHERF4_4, Q86UT5 (Q86UT5 464-550): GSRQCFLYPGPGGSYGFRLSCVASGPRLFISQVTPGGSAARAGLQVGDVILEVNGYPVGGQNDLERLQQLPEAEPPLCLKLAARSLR
Chain of PARD3_3, Q8TEW0 (Q8TEW0 582-685): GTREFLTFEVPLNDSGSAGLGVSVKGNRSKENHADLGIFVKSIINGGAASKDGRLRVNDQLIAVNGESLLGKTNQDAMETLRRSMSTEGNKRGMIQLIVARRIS
Chain of MAGI1_2, Q96QZ7 (Q96QZ7 456-580): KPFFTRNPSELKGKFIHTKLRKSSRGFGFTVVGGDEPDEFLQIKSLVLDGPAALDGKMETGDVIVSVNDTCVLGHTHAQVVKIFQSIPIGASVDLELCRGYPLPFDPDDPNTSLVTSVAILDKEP

For EPAKETTTNV [SLC2A3, P11169], which pKd (DLG1_1, Q12959) is on record?
Its pKd is 3.94.

What about the pKd (LIN7B, Q9HAP6) of the same binder?
The pKd was “below the threshold”.

And the pKd (LNX1_3, Q8TBB1)?
The pKd was “below the threshold”.

And the pKd (FRMPD3, Q5JV73)?
The pKd was “below the threshold”.

What about the pKd (SNTA1, Q13424) of the same binder?
The pKd was 4.09.

What about the pKd (DLG4_3, P78352) of the same binder?
The pKd was 3.7.

What about the pKd (FRMPD2_2, Q68DX3) of the same binder?
The pKd was 4.11.

And the pKd (MAGI2_3, Q86UL8)?
The pKd was “below the threshold”.

What about the pKd (Inadl_1, Q8NI35) of the same binder?
Its pKd is “below the threshold”.

And the pKd (NHERF3_3, Q5T2W1)?
Its pKd is “below the threshold”.

And the pKd (LIN7C, Q9NUP9)?
The pKd was 4.05.

What about the pKd (HTRA3, P83110) of the same binder?
The pKd was “below the threshold”.

And the pKd (DLG3_3, Q92796)?
The pKd was “below the threshold”.

And the pKd (DLG2_2, Q15700)?
Its pKd is 4.16.

And the pKd (MAGI1_2, Q96QZ7)?
The pKd was “below the threshold”.

And the pKd (GRIP2_3, Q9C0E4)?
The pKd was “below the threshold”.

And the pKd (Inadl_10, Q8NI35)?
The pKd was “below the threshold”.

What about the pKd (PARD3_3, Q8TEW0) of the same binder?
The pKd was “below the threshold”.

What about the pKd (GORASP1, Q9BQQ3) of the same binder?
The pKd was “below the threshold”.

What about the pKd (MAGI3_2, Q5TCQ9) of the same binder?
Its pKd is “below the threshold”.

And the pKd (MAST2, Q6P0Q8)?
The pKd was 5.06.

And the pKd (GOPC, Q9HD26)?
Its pKd is 3.73.

What about the pKd (NHERF4_4, Q86UT5) of the same binder?
The pKd was “below the threshold”.

And the pKd (RHPN1, Q8TCX5)?
The pKd was 4.35.

And the pKd (LNX1_2, Q8TBB1)?
Its pKd is “below the threshold”.

And the pKd (FRMPD2_1, Q68DX3)?
Its pKd is “below the threshold”.

What about the pKd (ARHGEF12, Q9NZN5-2) of the same binder?
The pKd was 3.87.

And the pKd (APBA1_2, Q02410)?
Its pKd is 3.84.

What about the pKd (Inadl_6, Q8NI35) of the same binder?
Its pKd is “below the threshold”.

What about the pKd (Inadl_4, Q8NI35) of the same binder?
The pKd was “below the threshold”.

And the pKd (Inadl_8, Q8NI35)?
The pKd was 3.59.

Which results are given for GNDPDRGTSI [GRID2, O43424]?
pKd (DLG1_1, Q12959): below the threshold; pKd (LIN7B, Q9HAP6): 3.69; pKd (LNX1_3, Q8TBB1): below the threshold; pKd (FRMPD3, Q5JV73): below the threshold; pKd (SNTA1, Q13424): below the threshold; pKd (DLG4_3, P78352): below the threshold; pKd (FRMPD2_2, Q68DX3): below the threshold; pKd (MAGI2_3, Q86UL8): below the threshold; pKd (Inadl_1, Q8NI35): below the threshold; pKd (NHERF3_3, Q5T2W1): below the threshold; pKd (LIN7C, Q9NUP9): below the threshold; pKd (HTRA3, P83110): below the threshold; pKd (DLG3_3, Q92796): below the threshold; pKd (DLG2_2, Q15700): below the threshold; pKd (MAGI1_2, Q96QZ7): below the threshold; pKd (GRIP2_3, Q9C0E4): below the threshold; pKd (Inadl_10, Q8NI35): below the threshold; pKd (PARD3_3, Q8TEW0): below the threshold; pKd (GORASP1, Q9BQQ3): below the threshold; pKd (MAGI3_2, Q5TCQ9): below the threshold; pKd (MAST2, Q6P0Q8): 4.45; pKd (GOPC, Q9HD26): below the threshold; pKd (NHERF4_4, Q86UT5): below the threshold; pKd (RHPN1, Q8TCX5): below the threshold; pKd (LNX1_2, Q8TBB1): below the threshold; pKd (FRMPD2_1, Q68DX3): below the threshold; pKd (ARHGEF12, Q9NZN5-2): below the threshold; pKd (APBA1_2, Q02410): 3.65; pKd (Inadl_6, Q8NI35): below the threshold; pKd (Inadl_4, Q8NI35): below the threshold; pKd (Inadl_8, Q8NI35): below the threshold

With SGDGKTSVWI [GJC1, P36383] as the binder, how does the pKd (DLG1_1, Q12959) read?
The pKd was “below the threshold”.

What about the pKd (LIN7B, Q9HAP6) of the same binder?
The pKd was 3.74.

What about the pKd (LNX1_3, Q8TBB1) of the same binder?
The pKd was “below the threshold”.

What about the pKd (FRMPD3, Q5JV73) of the same binder?
The pKd was “below the threshold”.

And the pKd (SNTA1, Q13424)?
Its pKd is “below the threshold”.

And the pKd (DLG4_3, P78352)?
The pKd was “below the threshold”.

And the pKd (FRMPD2_2, Q68DX3)?
The pKd was “below the threshold”.

And the pKd (MAGI2_3, Q86UL8)?
Its pKd is “below the threshold”.

What about the pKd (Inadl_1, Q8NI35) of the same binder?
Its pKd is 4.03.

What about the pKd (NHERF3_3, Q5T2W1) of the same binder?
The pKd was “below the threshold”.

And the pKd (LIN7C, Q9NUP9)?
The pKd was “below the threshold”.

And the pKd (HTRA3, P83110)?
The pKd was 5.8.

What about the pKd (DLG3_3, Q92796) of the same binder?
Its pKd is “below the threshold”.

What about the pKd (DLG2_2, Q15700) of the same binder?
The pKd was “below the threshold”.

What about the pKd (MAGI1_2, Q96QZ7) of the same binder?
Its pKd is “below the threshold”.

And the pKd (GRIP2_3, Q9C0E4)?
The pKd was “below the threshold”.

And the pKd (Inadl_10, Q8NI35)?
The pKd was 3.54.

What about the pKd (PARD3_3, Q8TEW0) of the same binder?
Its pKd is 4.62.

And the pKd (GORASP1, Q9BQQ3)?
The pKd was 4.51.

What about the pKd (MAGI3_2, Q5TCQ9) of the same binder?
The pKd was “below the threshold”.

And the pKd (MAST2, Q6P0Q8)?
The pKd was “below the threshold”.

And the pKd (GOPC, Q9HD26)?
Its pKd is “below the threshold”.

And the pKd (NHERF4_4, Q86UT5)?
Its pKd is 4.24.

What about the pKd (RHPN1, Q8TCX5) of the same binder?
Its pKd is “below the threshold”.

What about the pKd (LNX1_2, Q8TBB1) of the same binder?
The pKd was 4.03.

And the pKd (FRMPD2_1, Q68DX3)?
The pKd was 3.71.

What about the pKd (ARHGEF12, Q9NZN5-2) of the same binder?
The pKd was 3.61.

And the pKd (APBA1_2, Q02410)?
The pKd was 4.44.

What about the pKd (Inadl_6, Q8NI35) of the same binder?
Its pKd is 3.69.

What about the pKd (Inadl_4, Q8NI35) of the same binder?
The pKd was “below the threshold”.

What about the pKd (Inadl_8, Q8NI35) of the same binder?
Its pKd is “below the threshold”.
